In experiment [1] the target is Soluble cation-independent mannose 6-phosphate receptor (CI-MPR) purified from fetal bovine serum, coupled to Affigel-15 beads (CI-MPR column) (bovine (fetal bovine serum)) (UniProt P08169). Description: CI-MPR column fractionation; enzyme activity of fraction (starting material 1.41).
Experiment [2] has the same target. Description: CI-MPR column fractionation; enzyme activity of fraction eluted with 5 mM M6P (starting material 1.41).
The target is the same in experiment [3]. Description: CI-MPR column fractionation, beta-glucuronidase activity (FIG. 6).

Sequence of UniProt P08169 (P08169 45-2313 limits assumed): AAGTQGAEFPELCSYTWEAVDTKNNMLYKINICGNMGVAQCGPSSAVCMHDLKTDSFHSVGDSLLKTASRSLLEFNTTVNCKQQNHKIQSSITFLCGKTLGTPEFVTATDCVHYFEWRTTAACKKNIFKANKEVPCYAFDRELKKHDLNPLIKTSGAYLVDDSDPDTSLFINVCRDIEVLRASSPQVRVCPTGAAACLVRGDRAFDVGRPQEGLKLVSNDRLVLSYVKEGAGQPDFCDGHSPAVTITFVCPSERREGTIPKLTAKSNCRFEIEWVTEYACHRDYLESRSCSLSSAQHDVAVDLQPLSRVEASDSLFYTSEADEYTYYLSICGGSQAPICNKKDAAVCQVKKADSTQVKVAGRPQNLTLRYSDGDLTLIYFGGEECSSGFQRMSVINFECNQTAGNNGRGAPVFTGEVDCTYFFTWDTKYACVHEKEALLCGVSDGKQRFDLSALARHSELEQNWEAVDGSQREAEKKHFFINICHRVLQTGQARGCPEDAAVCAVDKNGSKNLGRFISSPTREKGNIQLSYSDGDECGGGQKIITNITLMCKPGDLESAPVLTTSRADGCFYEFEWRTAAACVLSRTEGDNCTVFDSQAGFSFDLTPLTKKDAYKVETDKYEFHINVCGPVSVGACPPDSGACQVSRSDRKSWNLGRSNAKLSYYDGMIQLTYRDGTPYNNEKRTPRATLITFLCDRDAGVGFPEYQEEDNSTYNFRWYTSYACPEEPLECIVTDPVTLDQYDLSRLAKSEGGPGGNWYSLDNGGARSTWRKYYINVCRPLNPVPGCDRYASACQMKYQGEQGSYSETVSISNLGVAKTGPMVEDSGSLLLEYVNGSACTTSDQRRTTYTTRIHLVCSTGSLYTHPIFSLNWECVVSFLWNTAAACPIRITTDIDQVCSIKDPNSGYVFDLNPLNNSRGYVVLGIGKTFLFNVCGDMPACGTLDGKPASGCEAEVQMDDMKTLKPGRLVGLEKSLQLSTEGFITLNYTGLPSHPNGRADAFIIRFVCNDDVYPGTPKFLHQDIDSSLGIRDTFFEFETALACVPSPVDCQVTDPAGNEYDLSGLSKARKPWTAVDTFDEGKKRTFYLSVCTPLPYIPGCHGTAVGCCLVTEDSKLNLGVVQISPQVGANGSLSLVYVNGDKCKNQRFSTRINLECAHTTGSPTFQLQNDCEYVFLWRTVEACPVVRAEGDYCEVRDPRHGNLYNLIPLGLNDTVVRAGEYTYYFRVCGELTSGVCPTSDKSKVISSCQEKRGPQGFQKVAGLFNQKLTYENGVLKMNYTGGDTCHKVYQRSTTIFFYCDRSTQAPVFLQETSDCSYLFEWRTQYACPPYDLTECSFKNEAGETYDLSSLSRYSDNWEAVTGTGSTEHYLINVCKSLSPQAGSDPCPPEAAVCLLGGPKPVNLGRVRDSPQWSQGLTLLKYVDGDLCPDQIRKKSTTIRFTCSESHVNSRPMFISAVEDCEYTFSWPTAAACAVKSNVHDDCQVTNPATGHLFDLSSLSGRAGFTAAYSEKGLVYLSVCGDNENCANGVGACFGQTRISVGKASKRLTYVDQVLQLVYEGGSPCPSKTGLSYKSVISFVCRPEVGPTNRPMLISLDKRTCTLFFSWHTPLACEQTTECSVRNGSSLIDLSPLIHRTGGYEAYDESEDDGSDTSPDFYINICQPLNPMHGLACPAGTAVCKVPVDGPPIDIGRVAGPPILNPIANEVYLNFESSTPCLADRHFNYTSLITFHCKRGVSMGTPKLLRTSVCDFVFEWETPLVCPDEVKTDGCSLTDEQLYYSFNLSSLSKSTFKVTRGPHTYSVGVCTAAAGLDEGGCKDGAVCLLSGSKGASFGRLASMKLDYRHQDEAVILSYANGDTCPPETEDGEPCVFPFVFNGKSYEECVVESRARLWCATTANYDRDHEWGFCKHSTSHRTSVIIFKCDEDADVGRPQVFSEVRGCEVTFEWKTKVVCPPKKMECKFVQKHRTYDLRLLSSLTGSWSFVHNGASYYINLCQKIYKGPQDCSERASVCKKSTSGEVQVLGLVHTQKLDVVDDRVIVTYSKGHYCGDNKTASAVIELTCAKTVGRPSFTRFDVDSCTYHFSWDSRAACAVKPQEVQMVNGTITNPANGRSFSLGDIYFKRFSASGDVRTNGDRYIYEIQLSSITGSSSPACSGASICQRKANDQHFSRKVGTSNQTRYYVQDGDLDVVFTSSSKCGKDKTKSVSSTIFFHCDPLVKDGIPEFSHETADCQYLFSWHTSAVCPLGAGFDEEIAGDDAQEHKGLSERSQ

In experiment [1], “oxidized beta-glucuronidase conjugated with phosphopentamannose-hydrazine (enzyme)” displayed an O.D. at 400 nm (beta-glucuronidase activity in column flow-through, unbound) of 0.27 OD 400 nm and an O.D. at 400 nm (beta-glucuronidase activity in final wash) of 0 OD 400 nm. In experiment [2], this substance returned an O.D. at 400 nm (beta-glucuronidase activity in M6P elution, bound) of 0.06 OD 400 nm. In experiment [3], this substance returned a percent of starting activity in the M6P elution fraction of 5% and a percent of starting activity in the flow through of 19%.

Values taken from patent publication US20050058634A1.
